Experimental findings from article PMC5430869, “Structure-function analysis of the DNA-binding domain of a transmembrane transcriptional activator” are described below.

Common to all, as to conditions: protein: recombinant; tags: His6-thioredoxin removed by TEV; blunt
The target of series [1] is T1, CadC1-107 (DBD) (Escherichia coli, UniProt P23890 1-107).
T1 sequence: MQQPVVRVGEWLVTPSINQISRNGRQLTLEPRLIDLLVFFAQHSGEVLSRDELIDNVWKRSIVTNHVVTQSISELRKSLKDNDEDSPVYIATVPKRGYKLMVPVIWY
Description: NMR; EMSA/NMR/ITC: 20 mM BisTris, 150 mM NaCl, pH 6.5, RT (NMR 10% D2O, 298 K; imino spectra 283 K); SPR: 10 mM HEPES pH 7.4, 150 mM NaCl, 3 mM EDTA, 0.05% P20, 25 C. (Mobility shift assays separate free from complexed probe on a gel.)

Series [2] deals with T1, CadC1-107 (DBD). Description: NMR; smaller imino CSPs, line broadening; EMSA/NMR/ITC: 20 mM BisTris, 150 mM NaCl, pH 6.5, RT (NMR 10% D2O, 298 K; imino spectra 283 K); SPR: 10 mM HEPES pH 7.4, 150 mM NaCl, 3 mM EDTA, 0.05% P20, 25 C.
The target in series [3] is T1, CadC1-107 (DBD). The series is described as follows: NMR titration; 1:1 model; EMSA/NMR/ITC: 20 mM BisTris, 150 mM NaCl, pH 6.5, RT (NMR 10% D2O, 298 K; imino spectra 283 K); SPR: 10 mM HEPES pH 7.4, 150 mM NaCl, 3 mM EDTA, 0.05% P20, 25 C.
Series [4] addresses T1, CadC1-107 (DBD). The series is described as follows: EMSA; identical to 41-mer; value only in figure; EMSA/NMR/ITC: 20 mM BisTris, 150 mM NaCl, pH 6.5, RT (NMR 10% D2O, 298 K; imino spectra 283 K); SPR: 10 mM HEPES pH 7.4, 150 mM NaCl, 3 mM EDTA, 0.05% P20, 25 C.
Series [5] addresses T2, CadC1-159 WT (Escherichia coli, UniProt P23890 1-159).
T2 sequence: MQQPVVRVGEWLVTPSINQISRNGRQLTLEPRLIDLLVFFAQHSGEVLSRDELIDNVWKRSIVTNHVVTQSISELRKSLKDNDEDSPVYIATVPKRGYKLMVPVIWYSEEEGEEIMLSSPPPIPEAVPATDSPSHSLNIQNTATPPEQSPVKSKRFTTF
Description: SPR; steady state; EMSA/NMR/ITC: 20 mM BisTris, 150 mM NaCl, pH 6.5, RT (NMR 10% D2O, 298 K; imino spectra 283 K); SPR: 10 mM HEPES pH 7.4, 150 mM NaCl, 3 mM EDTA, 0.05% P20, 25 C.

The target in the next series is T3, CadC1-159 E30R (Escherichia coli, UniProt P23890 1-159, E30R).
T3 sequence: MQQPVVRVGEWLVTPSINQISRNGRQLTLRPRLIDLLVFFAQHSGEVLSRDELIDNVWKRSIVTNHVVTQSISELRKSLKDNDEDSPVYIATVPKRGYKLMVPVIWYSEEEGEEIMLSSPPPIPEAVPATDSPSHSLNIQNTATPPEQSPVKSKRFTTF
The series is described as follows: SPR; almost 30-fold; EMSA/NMR/ITC: 20 mM BisTris, 150 mM NaCl, pH 6.5, RT (NMR 10% D2O, 298 K; imino spectra 283 K); SPR: 10 mM HEPES pH 7.4, 150 mM NaCl, 3 mM EDTA, 0.05% P20, 25 C.

Series [6] has as its target T2, CadC1-159 WT. Description: SPR; steady state; construct called CadC DBD in legend, CadC1-159 in Methods; EMSA/NMR/ITC: 20 mM BisTris, 150 mM NaCl, pH 6.5, RT (NMR 10% D2O, 298 K; imino spectra 283 K); SPR: 10 mM HEPES pH 7.4, 150 mM NaCl, 3 mM EDTA, 0.05% P20, 25 C. (In general: Surface plasmon resonance follows binding to a sensor surface in real time, without labels.)

B1: Cad1B 13-mer (dsDNA)
DNA 1: GTTTATCTTTTCA
DNA 2: TGAAAAGATAAAC
As for B1, the binding result in the series with CadC1-107 (DBD) [1] is “binds”.

B2: Cad1C 13-mer (dsDNA)
DNA 1: TGATATCAACTTG
DNA 2: CAAGTTGATATCA
Turning to B2, the binding result in the series with CadC1-107 (DBD) [2] is “binds”.

B3: Cad1 17-mer (dsDNA)
DNA 1: TAAACATTAAATGTTTA
DNA 2: TAAACATTTAATGTTTA
As usually defined, the Kd is the free concentration of one partner at which half of the binding sites on the other are occupied at equilibrium, for simple one-to-one binding. In the case of B3, in the series with CadC1-107 (DBD) [3], the Kd is 67 ± 16 µM.

B4: Cad1A 14-mer (dsDNA)
DNA 1: GTAAACATTAAATG
DNA 2: CATTTAATGTTTAC
Turning to B4, the binding result with CadC1-107 (DBD) [1] is on record as “binds”.

B5: Cad1AB 26-mer (dsDNA)
DNA 1: GTAAACATTAAATGTTTATCTTTTCA
DNA 2: TGAAAAGATAAACATTTAATGTTTAC
In the case of B5, in the series with CadC1-107 (DBD) [4], the binding result is given as “binds”.

B6: Cad1 41-mer, biotinylated (SPR) (dsDNA)
DNA 1: TTGTAAACATTAAATGTTTATCTTTTCATGATATCAACTTG
DNA 2: CAAGTTGATATCATGAAAAGATAAACATTTAATGTTTACAA
For B6, the Kd with CadC1-159 WT [5] was 0.38 µM. For the same molecule, in the series with CadC1-159 E30R, the binding signal is ~30 fold increased affinity vs WT.

B7: Cad1 17-mer, biotinylated (SPR) (dsDNA)
DNA 1: TAAACATTAAATGTTTA
DNA 2: TAAACATTTAATGTTTA
Regarding B7, the Kd with CadC1-159 WT [6] stood at 23 µM.
